This test deals with valosin-containing protein (VCP)/p97 (UniProt P55072).
Sequence of valosin-containing protein (VCP)/p97 (P55072 whole entry): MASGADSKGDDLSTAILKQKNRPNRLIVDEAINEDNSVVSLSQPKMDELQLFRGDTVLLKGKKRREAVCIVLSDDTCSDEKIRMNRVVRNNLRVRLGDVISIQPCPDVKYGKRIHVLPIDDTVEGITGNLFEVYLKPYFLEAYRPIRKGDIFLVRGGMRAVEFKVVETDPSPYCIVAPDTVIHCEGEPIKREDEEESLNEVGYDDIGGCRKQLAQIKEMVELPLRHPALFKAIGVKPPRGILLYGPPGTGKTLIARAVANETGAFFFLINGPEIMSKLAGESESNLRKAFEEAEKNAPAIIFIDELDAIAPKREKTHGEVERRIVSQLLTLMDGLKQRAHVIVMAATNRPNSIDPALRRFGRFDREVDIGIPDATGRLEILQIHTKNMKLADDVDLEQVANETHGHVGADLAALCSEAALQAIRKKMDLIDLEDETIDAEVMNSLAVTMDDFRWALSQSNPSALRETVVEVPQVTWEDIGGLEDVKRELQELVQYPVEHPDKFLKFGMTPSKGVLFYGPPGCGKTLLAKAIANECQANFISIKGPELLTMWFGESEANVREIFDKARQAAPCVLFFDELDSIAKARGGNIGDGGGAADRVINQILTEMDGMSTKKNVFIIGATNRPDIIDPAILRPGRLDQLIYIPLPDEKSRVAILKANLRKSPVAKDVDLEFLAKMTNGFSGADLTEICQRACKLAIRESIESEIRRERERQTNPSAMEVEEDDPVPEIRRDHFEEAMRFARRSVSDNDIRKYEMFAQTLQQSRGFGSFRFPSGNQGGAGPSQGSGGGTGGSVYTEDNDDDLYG

B1: VCPIP1^ΔUBX (aa Δ773-852) (enzyme)
chain: MSQPPPPPPPLPPPPPPPEAPQTPSSLASAAASGGLLKRRDRRILSGSCPDPKCQARLFFPASGSVSIECTECGQRHEQQQLLGVEEVTDPDVVLHNLLRNALLGVTGAPKKNTELVKVMGLSNYHCKLLSPILARYGMDKQTGRAKLLRDMNQGELFDCALLGDRAFLIEPEHVNTVGYGKDRSGSLLYLHDTLEDIKRANKSQECLIPVHVDGDGHCLVHAVSRALVGRELFWHALRENLKQHFQQHLARYQALFHDFIDAAEWEDIINECDPLFVPPEGVPLGLRNIHIFGLANVLHRPIILLDSLSGMRSSGDYSATFLPGLIPAEKCTGKDGHLNKPICIAWSSSGRNHYIPLVGIKGAALPKLPMNLLPKAWGVPQDLIKKYIKLEEDGGCVIGGDRSLQDKYLLRLVAAMEEVFMDKHGIHPSLVADVHQYFYRRTGVIGVQPEEVTAAAKKAVMDNRLHKCLLCGALSELHVPPEWLAPGGKLYNLAKSTHGQLRTDKNYSFPLNNLVCSYDSVKDVLVPDYGMSNLTACNWCHGTSVRKVRGDGSIVYLDGDRTNSRSTGGKCGCGFKHFWDGKEYDNLPEAFPITLEWGGRVVRETVYWFQYESDSSLNSNVYDVAMKLVTKHFPGEFGSEILVQKVVHTILHQTAKKNPDDYTPVNIDGAHAQRVGDVQGQESESQLPTKIILTGQKTKTLHKEELNMSKTERTIQQNITEQASVMQKRKTEKLKQEQKGQPRTVSPSTIRDGPSSAPATPTKAPYSPTTSSKAEGGQSAAAHSAHTVKQEDIAVTGKLSSKELQEQAEKEMYSLCLLATLMGEDVWSYAKGLPHMFQQGGVFYSIMKKTMGMADGKHCTFPHLPGKTFVYNASEDRLELCVDAAGHFPIGPDVEDLVKEAVSQVRAEATTRSRESSPSHGLLKLGSGGVVKKKSEQLHNVTAFQGKGHSLGTASGNPHLDPRARETSVVRKHNTGTDFSNSSTKTEPSVFTASSSNSELIRIAPGVVTMRDGRQLDPDLVEAQRKKLQEMVSSIQASMDRHLRDQSTEQSPSDLPQRKTEVVSSSAKSGSLQTGLPESFPLTGGTENLNTETTDGCVADALGAAFATRSKAQRGNSVEELEEMDSQDAEMTNTTEPMDHS
modifications: BODIPY, non-site-selective labelling, DOL 0.54, in the TR-FRET binding assay
Regarding B1, the initial velocity of Ub-Rho hydrolysis by VCPIP1^ΔUBX (62.5 nM enzyme) in the presence of VCP (v0 = 754.0 RFU/min without VCP); no effect of VCP is 733 RFU/min.

B2: VCPIP1^(ΔVCPID ΔUBX) (aa Δ589-666, Δ773-852) (enzyme)
chain: MSQPPPPPPPLPPPPPPPEAPQTPSSLASAAASGGLLKRRDRRILSGSCPDPKCQARLFFPASGSVSIECTECGQRHEQQQLLGVEEVTDPDVVLHNLLRNALLGVTGAPKKNTELVKVMGLSNYHCKLLSPILARYGMDKQTGRAKLLRDMNQGELFDCALLGDRAFLIEPEHVNTVGYGKDRSGSLLYLHDTLEDIKRANKSQECLIPVHVDGDGHCLVHAVSRALVGRELFWHALRENLKQHFQQHLARYQALFHDFIDAAEWEDIINECDPLFVPPEGVPLGLRNIHIFGLANVLHRPIILLDSLSGMRSSGDYSATFLPGLIPAEKCTGKDGHLNKPICIAWSSSGRNHYIPLVGIKGAALPKLPMNLLPKAWGVPQDLIKKYIKLEEDGGCVIGGDRSLQDKYLLRLVAAMEEVFMDKHGIHPSLVADVHQYFYRRTGVIGVQPEEVTAAAKKAVMDNRLHKCLLCGALSELHVPPEWLAPGGKLYNLAKSTHGQLRTDKNYSFPLNNLVCSYDSVKDVLVPDYGMSNLTACNWCHGTSVRKVRGDGSIVYLDGDRTNSRSTGGKCGCGFKHFWDGKEYDNLNIDGAHAQRVGDVQGQESESQLPTKIILTGQKTKTLHKEELNMSKTERTIQQNITEQASVMQKRKTEKLKQEQKGQPRTVSPSTIRDGPSSAPATPTKAPYSPTTSSKAEGGQSAAAHSAHTVKQEDIAVTGKLSSKELQEQAEKEMYSLCLLATLMGEDVWSYAKGLPHMFQQGGVFYSIMKKTMGMADGKHCTFPHLPGKTFVYNASEDRLELCVDAAGHFPIGPDVEDLVKEAVSQVRAEATTRSRESSPSHGLLKLGSGGVVKKKSEQLHNVTAFQGKGHSLGTASGNPHLDPRARETSVVRKHNTGTDFSNSSTKTEPSVFTASSSNSELIRIAPGVVTMRDGRQLDPDLVEAQRKKLQEMVSSIQASMDRHLRDQSTEQSPSDLPQRKTEVVSSSAKSGSLQTGLPESFPLTGGTENLNTETTDGCVADALGAAFATRSKAQRGNSVEELEEMDSQDAEMTNTTEPMDHS
modifications: BODIPY, non-site-selective labelling, DOL 0.44, in the TR-FRET binding assay
Turning to B2, the initial velocity of Ub-Rho hydrolysis by VCPIP1^(ΔVCPID ΔUBX) (62.5 nM enzyme) in the presence of VCP (v0 = 656.0 RFU/min without VCP); no effect of VCP amounted to 562 RFU/min.

Source of the values: paper PMC12394548.
